# T1: human TIM-1-Fc (extracellular domain of human TIM-1, residues 1-290, attached to the Fc portion of human IgG1) (human, UniProt Q96D42 21-290)
# T1 construct: also called TIM-1-Ig; human TIM1-Ig; not shown: Fc portion of human IgG1
# T1 sequence: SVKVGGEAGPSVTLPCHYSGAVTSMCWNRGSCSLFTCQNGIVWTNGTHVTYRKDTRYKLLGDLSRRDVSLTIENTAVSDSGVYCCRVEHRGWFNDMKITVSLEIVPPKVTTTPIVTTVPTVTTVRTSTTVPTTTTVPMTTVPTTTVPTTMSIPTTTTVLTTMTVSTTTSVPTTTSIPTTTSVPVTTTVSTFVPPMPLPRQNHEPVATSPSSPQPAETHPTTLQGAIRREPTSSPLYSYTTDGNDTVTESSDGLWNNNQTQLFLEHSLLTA
# T2: human TIM-1 expressed on cells (human, UniProt Q96D42 21-364)
# T2 construct: Full-length human TIM-1 on transfected (HEK 293T, 293E, JUN2 Jurkat) or constitutively expressing (769-P) cells; also called HAVCR1; KIM-1
# T2 sequence: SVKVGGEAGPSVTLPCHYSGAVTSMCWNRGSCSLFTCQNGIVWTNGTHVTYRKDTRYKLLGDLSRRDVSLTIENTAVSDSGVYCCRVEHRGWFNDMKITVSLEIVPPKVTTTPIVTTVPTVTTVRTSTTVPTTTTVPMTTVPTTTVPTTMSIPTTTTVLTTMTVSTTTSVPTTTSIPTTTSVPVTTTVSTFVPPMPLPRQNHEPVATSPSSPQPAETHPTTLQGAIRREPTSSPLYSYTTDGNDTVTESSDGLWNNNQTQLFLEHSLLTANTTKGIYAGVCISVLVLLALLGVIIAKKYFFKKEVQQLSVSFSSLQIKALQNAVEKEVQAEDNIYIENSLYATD
# T3: cynomolgus monkey TIM-1-Fc (cynomolgus monkey TIM-1 extracellular domain expressed as an Fc fusion protein) (Cynomolgus monkey (Macaca fascicularis))
# T3 construct: also called cyno.TIM1; not shown: Fc part
# T3 chain: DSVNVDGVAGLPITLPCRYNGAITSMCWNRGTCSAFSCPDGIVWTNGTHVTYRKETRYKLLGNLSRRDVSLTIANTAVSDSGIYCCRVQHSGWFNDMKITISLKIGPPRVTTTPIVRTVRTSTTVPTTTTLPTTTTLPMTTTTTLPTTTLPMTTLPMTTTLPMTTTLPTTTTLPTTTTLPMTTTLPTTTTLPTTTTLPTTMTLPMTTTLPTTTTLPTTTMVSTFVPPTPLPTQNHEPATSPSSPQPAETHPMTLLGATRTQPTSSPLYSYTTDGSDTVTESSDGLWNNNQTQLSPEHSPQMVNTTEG
# T4: Cynomolgus monkey TIM-1 expressed on transfected 293E cells (Cynomolgus monkey (Macaca fascicularis), UniProt O46598 25-478 (Chlorocebus aethiops entry))
# T4 construct: Full-length cDNA (pEAG2184) transfected into 293E cells; also called Cynomolgus TIM-1
# T4 chain: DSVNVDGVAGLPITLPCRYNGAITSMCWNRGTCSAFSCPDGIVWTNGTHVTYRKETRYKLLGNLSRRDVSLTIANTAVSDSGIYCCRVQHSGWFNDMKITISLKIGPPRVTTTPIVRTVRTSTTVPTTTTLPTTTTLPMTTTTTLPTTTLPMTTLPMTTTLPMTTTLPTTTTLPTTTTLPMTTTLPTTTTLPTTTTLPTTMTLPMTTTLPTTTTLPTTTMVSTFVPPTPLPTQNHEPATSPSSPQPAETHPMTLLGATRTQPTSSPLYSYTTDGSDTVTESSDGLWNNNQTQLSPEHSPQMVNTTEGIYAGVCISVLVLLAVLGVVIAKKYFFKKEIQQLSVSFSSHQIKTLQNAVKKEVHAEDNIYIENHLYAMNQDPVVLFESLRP
# B1: monoclonal antibody ARD5 (antibody, mouse IgG1, kappa, V domains shown)
# VH: QVQLQQSGAELVRPGTSVKVSCKASGYVFTNYWIEWIKQRPGQGLEWIGVMNPGSGETTYNEKFKGKATLTADKSSSTAYMQLSSLTSVDSAVYFCARDHDRDYYAMDYWGQGTSVTVSS
# VL: EIQMTQSPSSMSASLGDTITITCQATQDIFKNLNWYQQKPGKPPSLLIYYATELAEGVPSRFSGSGSGSDYSLTISNLESEDFAAYYCLQFFEFPFTFGSGTKLEMKR
# notes: Murine IgG1/kappa hybridoma antibody (ATCC PTA-12195); also called ARD5.12; muARD5
# B2: FAb fragment of ARD5 (Fab, V domains shown)
# VH: B1 VH
# VL: B1 VL
# notes: Fab purified from the ARD5 monoclonal antibody; also called FAb of ARD5; not shown: murine IgG1 CH1 and part of the hinge
# Experiments:
# [1] = target: T1, human TIM-1-Fc (extracellular domain of …); test: ELISA-1, plates coated with 2 µg/ml human TIM-1-Fc
# Experimental: In the second assay, an ELISA format was used to measure the relative affinity of three anti-TIM-1 monoclonal antibodies for human TIM-1. Titration curves were derived for each antibody and EC50 values were calculated from the curves. […] Plates were thoroughly washed with PBS/0.1% Tween-20. Anti-human TIM-1 monoclonal antibodies were added across a range of concentrations starting at 10 μg/ml and using 1:3 dilutions, all in PBS/0.5% casein, and allowed to incubate for 1 hour at 22° C. The plates were washed again, and then a 1:1000 dilution of HRP-conjugated goat anti-mouse IgG (H+L; Jackson Immunoresearch Laboratories) was added in PBS/0.5% casein for an additional hour at 22° C. After a final wash, the plates were developed using substrate solution mix (R&D Systems) and stopped using 2N H2SO4. Plates were read at 450 nm using a microplate reader and analyzed using SoftMax Pro (Molecular Devices). Relative EC50 values were determined from the binding curves.
# The cynomolgus monkey TIM-1 extracellular domain was expressed as an Fc fusion protein, purified, and used in the ELISA format described above for binding monoclonal antibodies to the human TIM-1 protein. […] The resulting titration curves were used to derive a relative EC50 for anti-human TIM-1 monoclonal antibody binding to human TIM-1 and cynomolgus monkey TIM-1 (Table 2, ELISA-2).
# [2] = target: T2, human TIM-1 expressed on cells; test: flow cytometry on JUN2 cells (Jurkat stably expressing human TIM-1), PE anti-mouse IgG, MFI against µg/ml of mAb
# Experimental: (§1) Three assays were used to assess the affinity of ARD5 for human TIM-1. In the first assay, ARD5 binding to cells expressing TIM-1 was measured by Flow Cytometry. Two cell lines were used. JUN2 cells are a stable human Jurkat TIM-1-expressing cell line (described in Binne et al. (2007) J. Immunol. 178: 4342-50). The human kidney cell line 769-P also constitutively expresses TIM-1. JUN2 cells and 769-P cells were cultured in RPMI/10% FBS. JUN2 cells grow in suspension; 769-P cells are adherent and were gently removed with Accutase (Invitrogen). Cells were resuspended in PBS/5% BSA and incubated with monoclonal antibodies for 1 hour on ice. Following several washes with PBS/5% BSA, the cells were resuspended in the same buffer containing PE-coupled donkey anti-mouse IgG secondary antibody (Jackson Immunoresearch). Following an additional wash in PBS/5% BSA and a final wash in PBS, cell were resuspended in 100 ul PBS and fixed in an equal volume of 2% paraformaldehyde. Monoclonal antibody binding was analyzed using a flow cytometer (FACScan).
# [3] = target: T1, human TIM-1-Fc (extracellular domain of …); test: ELISA, plates coated with human TIM-1-Fc
# Experimental: (§2) In the second assay, an ELISA format was used to measure the relative affinity of three anti-TIM-1 monoclonal antibodies for human TIM-1. Titration curves were derived for each antibody and EC50 values were calculated from the curves. Briefly, ELISA plates (Corning Costar) were coated with 0.2 μg/ml human TIM-1-Fc overnight at 4° C. and then blocked for 1 hour at 22° C. with PBS/0.5% casein. Plates were thoroughly washed with PBS/0.1% Tween-20. Anti-human TIM-1 monoclonal antibodies were added across a range of concentrations starting at 10 μg/ml and using 1:3 dilutions, all in PBS/0.5% casein, and allowed to incubate for 1 hour at 22° C. The plates were washed again, and then a 1:1000 dilution of HRP-conjugated goat anti-mouse IgG (H+L; Jackson Immunoresearch Laboratories) was added in PBS/0.5% casein for an additional hour at 22° C. After a final wash, the plates were developed using substrate solution mix (R&D Systems) and stopped using 2N H2SO4. Plates were read at 450 nm using a microplate reader and analyzed using SoftMax Pro (Molecular Devices). Relative EC50 values were determined from the binding curves.
# [4] = target: T2, human TIM-1 expressed on cells; test: flow cytometry on 769-P cells (constitutively expressing human TIM-1), PE anti-mouse IgG, MFI against µg/ml of mAb
# Experimental: as §1
# [5] = target: T1, human TIM-1-Fc (extracellular domain of …); test: SPR (Biacore), human TIM-1-Fc
# [6] = target: T3, cynomolgus monkey TIM-1-Fc (cynomolgus …); test: ELISA-2, plates coated with 0.2 µg/ml cynomolgus monkey TIM-1-Fc
# Experimental: as §2
# (§3) The cynomolgus monkey TIM-1 extracellular domain was expressed as an Fc fusion protein, purified, and used in the ELISA format described above for binding monoclonal antibodies to the human TIM-1 protein. […]
# [7] = target: T3, cynomolgus monkey TIM-1-Fc (cynomolgus …); test: SPR (Biacore), cynomolgus monkey TIM-1-Fc
# [8] = target: T3, cynomolgus monkey TIM-1-Fc (cynomolgus …); test: ELISA-1, plates coated with 2 µg/ml cynomolgus monkey TIM-1-Fc
# Experimental: as §2, §3
# [9] = target: T1, human TIM-1-Fc (extracellular domain of …); test: ELISA-2, plates coated with 0.2 µg/ml human TIM-1-Fc
# Experimental: as §2, §3
# [10] = target: T4, Cynomolgus monkey TIM-1 expressed on …; test: flow cytometry on 293E cells transfected with Cynomolgus monkey TIM-1 cDNA, gated on EGFP-positive cells, PE anti-mouse IgG
# Experimental: In a second series of experiments, 293E cells transfected with human TIM-1 cDNA or Cynomolgus monkey TIM-1 cDNA were analyzed for anti-human TIM-1 monoclonal antibody binding by flow cytometry. The full-length human and cynomolgus monkey TIM1 cDNAs were engineered to remove extraneous 5′ and 3′ UTRs and to add an identical optimized Kozak sequence, then were subcloned into pNE001, a fully sequence-confirmed pUC-based EBV expression vector derived from the Invitrogen expression vector pCEP4, in which heterologous gene expression is controlled by a CMV-IE promoter and an SV40 polyadenylation signal, but lacking the EBNA gene and the hygromycin resistance gene. TIM-1 expression vectors (human: pEAG2182, and cynomolgus monkey: pEAG2184) were co-transfected into 293E cells at a 1:1 molar ratio with an EBV expression vector carrying an EGFP reporter (pEAG1458). Cells were transfected using Qiagen's Effectene reagent, following the manufacturer's recommended protocol. Cells were used in FACS at 2 days post-transfection, staining with a dilution titration series of murine anti-human TIM1 monoclonal antibodies, (detected with PE-conjugated goat anti-mouse IgG secondary antibody) and gating on green EGFP-positive living cells. […]
# [11] = target: T1, human TIM-1-Fc (extracellular domain of …); test: SPR (Biacore), monovalent binding to immobilized human TIM-1
Binder,EC50 [1],EC50 (read off the curve) [2],EC50 [3],relative EC50 against A6G2 and A3H1 (percent greater) [3],EC50 (read off the curve) [4],Kd [5],EC50 [6],Kd [7],EC50 [8],EC50 [9],binding result [10],Kd [11]
B1,0.001 mg/L,~0.1 mg/L,0.00078 mg/L,80.5%,~0.2 mg/L,≤ 0.6 nM,0.013 mg/L,< 50 nM,0.002 mg/L,0.043 mg/L,binds,–
B2,–,–,–,–,–,–,–,–,–,–,–,3 nM

# Source: patent US20150110792A1 (Biogen, published 2015)
